The target in assay [1] is BY2-RBD (ER-retained receptor-binding domain of the SARS-CoV-2 S protein expressed stably in Nicotia (SARS-CoV-2) (UniProt P0DTC2)). Put plainly: non-reducing PAGE Western blot.
In assay [2] the target is NB-RBD (ER-retained receptor-binding domain of the SARS-CoV-2 S protein expressed transiently in N. benthamiana) (SARS-CoV-2) (UniProt P0DTC2). As to the kind of experiment: non-reducing PAGE Western blot.

In assay [1], “BY2-RBD (ER-retained receptor-binding domain of the SARS-CoV-2 S protein expressed stably in Nicotia (from UniProt P0DTC2 319-541) (domain or fragment)” came in with a stoichiometry N of 4.

In assay [2], “NB-RBD (ER-retained receptor-binding domain of the SARS-CoV-2 S protein expressed transiently in N. benthamiana) (from UniProt P0DTC2 319-541) (domain or fragment)” registered a stoichiometry N of 4.

These data come from PMC10794598.
